Legend:
[1] = target: MBP-LjNLP4 (564–976) (Lotus japonicus); assay: SEC-MALS
[2] = target: MBP-LjNIN (551–878) (Lotus japonicus); assay: SEC-MALS
[3] = target: MBP-LjNIN (551-878) (Lotus japonicus, UniProt Q9S7B1 551-878); assay: EMSA
[4] = target: MBP-LjNLP4 (564-976) (Lotus japonicus, UniProt A0A2Z5V8A6 564-976); assay: EMSA
[5] = target: MBP-LjNLP4 (564-976);Trx-His-LjNIN (551-878) (Lotus japonicus;Lotus japonicus, UniProt A0A2Z5V8A6;Q9S7B1 564-976;551-878, |); assay: EMSA

| Molecule | stoichiometry N [1] | stoichiometry N [2] | binding result [3] | binding result [4] | binding result [5] |
| --- | --- | --- | --- | --- | --- |
| MBP-LjNLP4 (564–976) (domain or fragment) | 2 | – | – | – | – |
| MBP-LjNIN (551–878) (domain or fragment) | – | 2 | – | – | – |
| LjNIR1pro (dsDNA) DNA 1: CAAACACGACCCTTTGTCACAACCAAAGGTCCATTGTA DNA 2: TACAATGGACCTTTGGTTGTGACAAAGGGTCGTGTTTG | – | – | binds | binds | – |
| LjNF-YBpro (dsDNA) DNA 1: TTTACTTGTATCTTTAGAGCTTTCCAAGGGATATTTCA DNA 2: TGAAATATCCCTTGGAAAGCTCTAAAGATACAAGTAAA | – | – | binds | no binding | binds |
| CLE-RS2pro (dsDNA) DNA 1: TGAGTTCTGACCCTTAAGCCTTGGAAAGGACAGTCATG DNA 2: CATGACTGTCCTTTCCAAGGCTTAAGGGTCAGAACTCA | – | – | binds | binds | – |

From publication PMC8364233
